Ends that are not written are not given here. HA = hyaluronic acid (HA-TBA), bound to the peptide's terminal amine
Molecular target: Flt1-Fc (R&D systems, Minneapolis, Minn.) (UniProt P17948)
Test: competition ELISA, VEGF165-coated plate, 500 ng/mL Flt1-Fc, conjugate at rising peptide concentration

Sequence of Flt1-Fc (R&D systems, Minneapolis, Minn.) (P17948 27-756 limits assumed): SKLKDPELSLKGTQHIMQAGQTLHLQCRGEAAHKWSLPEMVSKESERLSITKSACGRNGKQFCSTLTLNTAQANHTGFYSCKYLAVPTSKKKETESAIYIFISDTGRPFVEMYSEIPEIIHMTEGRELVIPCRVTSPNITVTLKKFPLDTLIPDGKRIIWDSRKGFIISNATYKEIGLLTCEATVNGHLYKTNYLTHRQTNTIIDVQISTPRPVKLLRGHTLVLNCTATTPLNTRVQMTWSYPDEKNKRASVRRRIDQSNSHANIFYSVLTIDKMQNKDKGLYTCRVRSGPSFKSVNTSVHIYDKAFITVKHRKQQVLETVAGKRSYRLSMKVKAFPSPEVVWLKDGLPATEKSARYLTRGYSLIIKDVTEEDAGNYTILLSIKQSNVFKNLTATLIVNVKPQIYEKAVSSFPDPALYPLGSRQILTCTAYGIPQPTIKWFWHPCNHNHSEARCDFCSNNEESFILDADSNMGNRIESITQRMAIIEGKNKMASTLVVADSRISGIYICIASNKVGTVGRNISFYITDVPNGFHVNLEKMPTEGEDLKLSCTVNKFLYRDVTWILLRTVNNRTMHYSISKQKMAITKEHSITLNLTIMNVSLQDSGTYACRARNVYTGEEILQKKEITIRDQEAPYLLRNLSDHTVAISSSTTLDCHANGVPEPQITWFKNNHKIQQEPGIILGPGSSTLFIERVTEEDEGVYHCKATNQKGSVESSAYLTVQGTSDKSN

- inhibition of the bonding between VEGF165 and Flt1-Fc (luminescence, positive control = 100%): 32%
Binder: {HA}-GGNQWFI (also: 20 peptides conjugated per HA-TBA molecule) [hyaluronic acid-peptide conjugate with a lower peptide content of Preparation Example 3 (HA-GGNQWFI)]

— patent US20120294945A1
